Test results: patent US20130012432A1 (Novo Nordisk, published 2013)
Positions of bridges follow the written chain, without caps; N, C: chain ends. Non-standard residues stand in square brackets, D forms with d. Groups on a side chain read outwards from the residue. Primed or numbered codes have the meaning given here. *: point of attachment. X2 = (2-(2-(16-(tetrazol-5-yl)hexadecanoylamino)ethoxy)ethoxy)acetyl, O=C(CCCCCCCCCCCCCCCc1nn[nH]n1)NCCOCCOCC(=O)*; X5 = NH(2-(2-(2-(17-carboxyheptadecanoylamino)ethoxy)ethoxy)ethyl), O=C(O)CCCCCCCCCCCCCCCCC(=O)NCCOCCOCCN*; biscarboxymethyl = Lys(biscarboxymethyl) = Nepsilon-bis(carboxymethyl)-L-lysine; bis(carboxymethyl) = Lys(biscarboxymethyl) = N6-bis(carboxymethyl)-L-lysine; Palmitoyl(16-(5-tetrazolyl)) = O=C(CCCCCCCCCCCCCCCc1nnn[nH]1)*; biscarboxymethyl(3) = Nepsilon-bis(carboxymethyl) on Lys; Lys(CH2CO2H)2 = N[C@@H](CCCCN(CC(=O)O)CC(=O)O)C(=O)O; C17 diacid = O=C(O)CCCCCCCCCCCCCCCC(=O)*; C16 diacid = O=C(O)CCCCCCCCCCCCCCC(=O)*; C14 diacid = O=C(O)CCCCCCCCCCCCC(=O)*; Hyp = O=C(O)[C@@H]1C[C@@H](O)CN1; NTA = O=C(O)CN(CC(=O)O)CC(=O)*; hCys = N[C@@H](CCS)C(=O)O; Orn = NCCC[C@H](N)C(=O)O; Dab = NCC[C@H](N)C(=O)O; Dap = NC[C@H](N)C(=O)O; AEEA = NCCOCCOCC(=O)O

Biological target: T1, human MC4 receptor (human, UniProt P32245 1-332)
T1 construct: whole, on cells; Assayed as membranes of BHK cells stably expressing the receptor; also called melanocortin receptor subtype 4; melanocortin receptor 4
T1 sequence (P32245 whole entry): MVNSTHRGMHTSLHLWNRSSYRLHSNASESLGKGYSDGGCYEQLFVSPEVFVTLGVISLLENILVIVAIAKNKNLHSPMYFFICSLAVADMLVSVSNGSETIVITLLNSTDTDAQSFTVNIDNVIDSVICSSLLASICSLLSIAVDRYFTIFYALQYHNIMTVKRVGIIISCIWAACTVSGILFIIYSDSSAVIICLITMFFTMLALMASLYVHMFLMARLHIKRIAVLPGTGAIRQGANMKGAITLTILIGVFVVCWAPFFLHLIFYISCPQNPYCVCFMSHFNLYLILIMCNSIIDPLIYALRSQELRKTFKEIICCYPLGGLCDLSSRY
Assay: 125I-NDP-α-MSH displacement, BHK-human MC4 membranes (Assay V);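 note: Filter-retained radioactivity read by gamma counting, with affinity obtained through non-linear regression fitting of the binding curves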
Method: The membranes were prepared from frozen or fresh cells that were homogenized in 20 mM HEPES pH 7.1, 5 mM MgCl₂ and 1 mg/ml bacitracin and centrifuged at 15000 rpm at 4° C., 10 min in a Sorvall RC 5B plus, SS-34 rotor. The supernatant was discarded, and the pellets were re-suspended in buffer, homogenized and centrifuged two more times. The final pellets were resuspended in the buffer mentioned above, and the protein concentration was measured and adjusted with buffer to 14 to 17 mg/ml and the membrane preparation were kept at −80° C. until assay. The assay was run directly on a dilution of this cell membrane suspension, without any further preparation. The BHK cell membranes are kept at −80° C. until assay, and the assay is run directly on a dilution of this cell membrane suspension, without further preparation. The suspension is diluted to give maximally 10% specific binding, i.e. to approx. 50-100 fold dilution. […] Test compounds were dissolved in DMSO and diluted in binding buffer. Radiolabelled ligand and membranes were diluted in binding buffer. The incubation was stopped by dilution with 2×100 μl ice-cold 0.9% NaCl. The radioactivity retained on the filters was counted using a Cobra II auto gamma counter.
The data were analysed by non-linear regression analysis of binding curves, using the Windows™ program GraphPad™ Prism (GraphPad Software, USA).

Row | Binder | Ki [nM]
1 | Ac-[Dab]H[dF]RWDPPREK(biscarboxymethyl(3))K([AEEA-Palmitoyl(16-(5-tetrazolyl))])-NH2 (lactam 1-6) | 8.45
2 | Ac-[Dab]H[dF]RWDPPHEK(biscarboxymethyl(3))K([AEEA-Palmitoyl(16-(5-tetrazolyl))])-NH2 (lactam 1-6) | 76
3 | Ac-[Dab]H[dF]RWEPPRDK(biscarboxymethyl(3))K([AEEA-Palmitoyl(16-(5-tetrazolyl))])-NH2 (lactam 1-6) | 107
4 | Ac-[Orn]H[dF]RWDPPHEK(biscarboxymethyl)K(X2)-NH2 (lactam 1-6) | 1.43
5 | Ac-[Orn]H[dF]RWEPPHEK(bis(carboxymethyl))K([AEEA-C17 diacid])-NH2 (lactam 1-6) | 21.5
6 | Ac-KH[dF]RWDPPHEESSEK([AEEA-C17 diacid])-NH2 (lactam 1-6; SMILES CC(=O)N[C@H]1CCCCNC(=O)C[C@@H](C(=O)N2CCC[C@H]2C(=O)N2CCC[C@H]2C(=O)N[C@@H](Cc2c[nH]cn2)C(=O)N[C@@H](CCC(=O)O)C(=O)N[C@@H](CCC(=O)O)C(=O)N[C@@H](CO)C(=O)N[C@@H](CO)C(=O)N[C@@H](CCC(=O)O)C(=O)N[C@@H](CCCCNC(=O)COCCOCCNC(=O)CCCCCCCCCCCCCCCC(=O)O)C(N)=O)NC(=O)[C@H](Cc2c[nH]c3ccccc23)NC(=O)[C@H](CCCNC(=N)N)NC(=O)[C@@H](Cc2ccccc2)NC(=O)[C@H](Cc2c[nH]cn2)NC1=O) | 30
7 | Ac-KH[dF]RWDPSSS[Lys(CH2CO2H)2]SS-X5 (lactam 1-6; SMILES CC(=O)N[C@H]1CCCCNC(=O)C[C@@H](C(=O)N2CCC[C@H]2C(=O)N[C@@H](CO)C(=O)N[C@@H](CO)C(=O)N[C@@H](CO)C(=O)N[C@@H](CCCCN(CC(=O)O)CC(=O)O)C(=O)N[C@@H](CO)C(=O)N[C@@H](CO)C(=O)NCCOCCOCCNC(=O)CCCCCCCCCCCCCCCCC(=O)O)NC(=O)[C@H](Cc2c[nH]c3ccccc23)NC(=O)[C@H](CCCNC(=N)N)NC(=O)[C@@H](Cc2ccccc2)NC(=O)[C@H](Cc2c[nH]cn2)NC1=O) | 2.75
8 | Ac-[hCys]H[dF]RWCPPKEK(bis(carboxymethyl))K([AEEA-C16 diacid])-NH2 (disulfide 1-6) | 17
9 | Ac-[hCys]H[dF]RWCPPKDK(NTA)K([AEEA-Palmitoyl(16-(5-tetrazolyl))])-NH2 (disulfide 1-6; SMILES CC(=O)N[C@H]1CCSSC[C@@H](C(=O)N2CCC[C@H]2C(=O)N2CCC[C@H]2C(=O)N[C@@H](CCCCN)C(=O)N[C@@H](CC(=O)O)C(=O)N[C@@H](CCCCNC(=O)CN(CC(=O)O)CC(=O)O)C(=O)N[C@@H](CCCCNC(=O)COCCOCCNC(=O)CCCCCCCCCCCCCCCc2nnn[nH]2)C(N)=O)NC(=O)[C@H](Cc2c[nH]c3ccccc23)NC(=O)[C@H](CCCNC(=N)N)NC(=O)[C@@H](Cc2ccccc2)NC(=O)[C@H](Cc2c[nH]cn2)NC1=O) | 0.4
10 | Ac-[hCys]H[dF]RWCPPSEK(bis(carboxymethyl))K([AEEA-C16 diacid])-NH2 (disulfide 1-6) | 70
11 | Ac-[Orn]H[dF]RWEPSSSK(bis(carboxymethyl))SSK([AEEA-C17 diacid])-NH2 (lactam 1-6) | 6.35
12 | Ac-CEH[dF]RWGCPPKE[Lys(CH2CO2H)2]K([AEEA-C16 diacid])-NH2 (disulfide 1-8; SMILES CC(=O)N[C@H]1CSSC[C@@H](C(=O)N2CCC[C@H]2C(=O)N2CCC[C@H]2C(=O)N[C@@H](CCCCN)C(=O)N[C@@H](CCC(=O)O)C(=O)N[C@@H](CCCCN(CC(=O)O)CC(=O)O)C(=O)N[C@@H](CCCCNC(=O)COCCOCCNC(=O)CCCCCCCCCCCCCCC(=O)O)C(N)=O)NC(=O)CNC(=O)[C@H](Cc2c[nH]c3ccccc23)NC(=O)[C@H](CCCNC(=N)N)NC(=O)[C@@H](Cc2ccccc2)NC(=O)[C@H](Cc2c[nH]cn2)NC(=O)[C@H](CCC(=O)O)NC1=O) | 55
13 | Ac-[hCys]Q[dF]RWCPPKD[Dap](NTA)K([AEEA-Palmitoyl(16-(5-tetrazolyl))])-NH2 (disulfide 1-6; SMILES CC(=O)N[C@H]1CCSSC[C@@H](C(=O)N2CCC[C@H]2C(=O)N2CCC[C@H]2C(=O)N[C@@H](CCCCN)C(=O)N[C@@H](CC(=O)O)C(=O)N[C@@H](CNC(=O)CN(CC(=O)O)CC(=O)O)C(=O)N[C@@H](CCCCNC(=O)COCCOCCNC(=O)CCCCCCCCCCCCCCCc2nnn[nH]2)C(N)=O)NC(=O)[C@H](Cc2c[nH]c3ccccc23)NC(=O)[C@H](CCCNC(=N)N)NC(=O)[C@@H](Cc2ccccc2)NC(=O)[C@H](CCC(N)=O)NC1=O) | 1.06
14 | Ac-[hCys][Hyp][dF]RWCPPKD[Dap](NTA)K([AEEA-Palmitoyl(16-(5-tetrazolyl))])-NH2 (disulfide 1-6; SMILES CC(=O)N[C@H]1CCSSC[C@@H](C(=O)N2CCC[C@H]2C(=O)N2CCC[C@H]2C(=O)N[C@@H](CCCCN)C(=O)N[C@@H](CC(=O)O)C(=O)N[C@@H](CNC(=O)CN(CC(=O)O)CC(=O)O)C(=O)N[C@@H](CCCCNC(=O)COCCOCCNC(=O)CCCCCCCCCCCCCCCc2nnn[nH]2)C(N)=O)NC(=O)[C@H](Cc2c[nH]c3ccccc23)NC(=O)[C@H](CCCNC(=N)N)NC(=O)[C@@H](Cc2ccccc2)NC(=O)[C@@H]2C[C@@H](O)CN2C1=O) | 0.62
15 | Ac-CEH[dF]RWCPPKE[Lys(CH2CO2H)2]K([AEEA-Palmitoyl(16-(5-tetrazolyl))])-NH2 (disulfide 1-7; SMILES CC(=O)N[C@H]1CSSC[C@@H](C(=O)N2CCC[C@H]2C(=O)N2CCC[C@H]2C(=O)N[C@@H](CCCCN)C(=O)N[C@@H](CCC(=O)O)C(=O)N[C@@H](CCCCN(CC(=O)O)CC(=O)O)C(=O)N[C@@H](CCCCNC(=O)COCCOCCNC(=O)CCCCCCCCCCCCCCCc2nnn[nH]2)C(N)=O)NC(=O)[C@H](Cc2c[nH]c3ccccc23)NC(=O)[C@H](CCCNC(=N)N)NC(=O)[C@@H](Cc2ccccc2)NC(=O)[C@H](Cc2c[nH]cn2)NC(=O)[C@H](CCC(=O)O)NC1=O) | 15
16 | Ac-[hCys]H[dF]RWCPPKD[Dap](NTA)K([AEEA-Palmitoyl(16-(5-tetrazolyl))])-OH (disulfide 1-6; SMILES CC(=O)N[C@H]1CCSSC[C@@H](C(=O)N2CCC[C@H]2C(=O)N2CCC[C@H]2C(=O)N[C@@H](CCCCN)C(=O)N[C@@H](CC(=O)O)C(=O)N[C@@H](CNC(=O)CN(CC(=O)O)CC(=O)O)C(=O)N[C@@H](CCCCNC(=O)COCCOCCNC(=O)CCCCCCCCCCCCCCCc2nnn[nH]2)C(=O)O)NC(=O)[C@H](Cc2c[nH]c3ccccc23)NC(=O)[C@H](CCCNC(=N)N)NC(=O)[C@@H](Cc2ccccc2)NC(=O)[C@H](Cc2c[nH]cn2)NC1=O) | 6.4
17 | Ac-EH[dF]RW[Dap]PPRDK(biscarboxymethyl(3))K([AEEA-Palmitoyl(16-(5-tetrazolyl))])-NH2 (lactam 1-6) | 13
18 | Ac-DH[dF]RW[Dap]PPRDK(biscarboxymethyl(3))K([AEEA-Palmitoyl(16-(5-tetrazolyl))])-NH2 (lactam 1-6) | 71.5
19 | Ac-[hCys]H[dF]RWCPPKD[Dap](NTA)K([AEEA-C14 diacid])-NH2 (disulfide 1-6; SMILES CC(=O)N[C@H]1CCSSC[C@@H](C(=O)N2CCC[C@H]2C(=O)N2CCC[C@H]2C(=O)N[C@@H](CCCCN)C(=O)N[C@@H](CC(=O)O)C(=O)N[C@@H](CNC(=O)CN(CC(=O)O)CC(=O)O)C(=O)N[C@@H](CCCCNC(=O)COCCOCCNC(=O)CCCCCCCCCCCCC(=O)O)C(N)=O)NC(=O)[C@H](Cc2c[nH]c3ccccc23)NC(=O)[C@H](CCCNC(=N)N)NC(=O)[C@@H](Cc2ccccc2)NC(=O)[C@H](Cc2c[nH]cn2)NC1=O) | 4.2
20 | Ac-KH[dF]RWDPPHE[Lys(CH2CO2H)2]K([AEEA-C17 diacid])-NH2 (lactam 1-6; SMILES CC(=O)N[C@H]1CCCCNC(=O)C[C@@H](C(=O)N2CCC[C@H]2C(=O)N2CCC[C@H]2C(=O)N[C@@H](Cc2c[nH]cn2)C(=O)N[C@@H](CCC(=O)O)C(=O)N[C@@H](CCCCN(CC(=O)O)CC(=O)O)C(=O)N[C@@H](CCCCNC(=O)COCCOCCNC(=O)CCCCCCCCCCCCCCCC(=O)O)C(N)=O)NC(=O)[C@H](Cc2c[nH]c3ccccc23)NC(=O)[C@H](CCCNC(=N)N)NC(=O)[C@@H](Cc2ccccc2)NC(=O)[C@H](Cc2c[nH]cn2)NC1=O) | 17
